Data set [1] addresses T1, G5N WT (Homo sapiens, UniProt Q8TEQ6 1-726). Put plainly: EMSA.
Another data set addresses G5N Y474A (Homo sapiens, UniProt Q8TEQ6 1-726, Y474A). Put plainly: EMSA. For orientation: A gel shift assay detects complexes by their altered migration in electrophoresis.
For data set [2], the target named is T1, G5N WT. Put plainly: EMSA. This is another data set of the same source.
For data set [3], the target named is T1, G5N WT. Put plainly: crystal structure.
In the next data set the target is G5N R335E (Homo sapiens, UniProt Q8TEQ6 1-726, R335E). Put plainly: FP.
Sequence of G5N R335E (Q8TEQ6 1-726 R335E): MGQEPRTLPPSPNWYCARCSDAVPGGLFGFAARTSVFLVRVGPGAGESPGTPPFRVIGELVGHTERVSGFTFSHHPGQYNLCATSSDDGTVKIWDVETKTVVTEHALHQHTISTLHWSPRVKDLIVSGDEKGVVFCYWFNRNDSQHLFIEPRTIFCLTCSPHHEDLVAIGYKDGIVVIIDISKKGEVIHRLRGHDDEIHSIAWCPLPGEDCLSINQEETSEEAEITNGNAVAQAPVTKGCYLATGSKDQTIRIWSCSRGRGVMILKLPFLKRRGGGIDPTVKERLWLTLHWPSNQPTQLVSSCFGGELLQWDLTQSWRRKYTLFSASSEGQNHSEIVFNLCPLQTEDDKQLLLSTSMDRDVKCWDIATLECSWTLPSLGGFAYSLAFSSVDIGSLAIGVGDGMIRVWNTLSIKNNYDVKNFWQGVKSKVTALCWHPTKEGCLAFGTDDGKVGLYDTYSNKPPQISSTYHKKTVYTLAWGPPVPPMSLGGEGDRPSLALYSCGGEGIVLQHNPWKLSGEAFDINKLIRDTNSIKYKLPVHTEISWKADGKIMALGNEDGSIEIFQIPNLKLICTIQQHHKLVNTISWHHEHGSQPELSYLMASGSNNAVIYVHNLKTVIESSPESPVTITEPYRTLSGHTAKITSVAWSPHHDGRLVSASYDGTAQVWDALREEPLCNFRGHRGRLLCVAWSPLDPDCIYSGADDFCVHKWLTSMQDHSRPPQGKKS
Another data set addresses G5N Y383F (Homo sapiens, UniProt Q8TEQ6 1-726, Y383F). In words: FP.
Another data set has as its target G5N M403E (Homo sapiens, UniProt Q8TEQ6 1-726, M403E). Put plainly: FP.
For data set [4], the target named is T1, G5N WT. Put plainly: FP.
Another data set has as its target G5N R33A (Homo sapiens, UniProt Q8TEQ6 1-726, R33A). In words: FP.
A further data set addresses G5N N13A (Homo sapiens, UniProt Q8TEQ6 1-726, N13A). Put plainly: FP.
Another data set concerns the target G5N R359A (Homo sapiens, UniProt Q8TEQ6 1-726, R359A). In words: FP.
For a further data set, the target named is G5N M357A (Homo sapiens, UniProt Q8TEQ6 1-726, M357A). In words: FP.
Sequence of G5N M357A (Q8TEQ6 1-726 M357A): as the sequence (Q8TEQ6 1-726 R335E) above, with E335R, M357A counted along it

T1 sequence (Q8TEQ6 1-726): as the sequence (Q8TEQ6 1-726 R335E) above, with E335R counted along it
Sequence of G5N R359A (Q8TEQ6 1-726 R359A): as the sequence (Q8TEQ6 1-726 R335E) above, with E335R, R359A counted along it
Sequence of G5N Y383F (Q8TEQ6 1-726 Y383F): as the sequence (Q8TEQ6 1-726 R335E) above, with E335R, Y383F counted along it
Sequence of G5N R33A (Q8TEQ6 1-726 R33A): as the sequence (Q8TEQ6 1-726 R335E) above, with R33A, E335R counted along it
Sequence of G5N Y474A (Q8TEQ6 1-726 Y474A): as the sequence (Q8TEQ6 1-726 R335E) above, with E335R, Y474A counted along it
Sequence of G5N N13A (Q8TEQ6 1-726 N13A): as the sequence (Q8TEQ6 1-726 R335E) above, with N13A, E335R counted along it
Sequence of G5N M403E (Q8TEQ6 1-726 M403E): as the sequence (Q8TEQ6 1-726 R335E) above, with E335R, M403E counted along it

In the case of AAUUUUUG (ssRNA) [U4 8-mer], the binding result in the data set with G5N WT [1] is on record as “binds”.

Turning to GCAAUUUUUGACA (ssRNA) [U4 13-mer], the binding result in the data set with G5N Y474A was “binds”.

In the case of CAAUUUUUGAC (ssRNA) [U4 11-mer], the binding result with G5N WT [2] is “binds”.

Take AUUUUUG (ssRNA) [U4 7-mer (bare Sm site)]: the binding result in the data set with G5N WT [3] is “binds”.

In the case of GCAAUUUUUGACA (ssRNA) [U4 13-mer, FITC], the dissociation constant Kd turned out to be 96.7 µM with G5N R335E; 3.8 µM with G5N Y383F; 2 µM with G5N M403E; 0.24 µM with G5N WT [4]; 3.3 µM with G5N R33A; 1.4 µM with G5N N13A. For the same molecule, the values for the Kd in the data set with G5N R359A and with G5N M357A were 46.6 µM and 8.1 µM, respectively.

For CAAUUUUUG (ssRNA) [U4 9-mer (soak)], the binding result in the data set with G5N WT [3] was “binds”.

By Kd is commonly meant the equilibrium constant for the complex coming apart.
